The values that follow come from patent publication US20080160617A1, “AGENT FOR INDUCING EMBRYONIC STEM CELL TO ECTODERMAL CELL, METHOD FOR OBTAINING THE SAME, AND USE OF THE SAME” (KYOWA HAKKO KOGYO CO., LTD., priority 2001, published 2008).

One assay deals with embryonic stem cell. Conditions: cited from earlier work.
Assay [1] deals with ES cell EB5. The assay can be described thus: Coculture of ES cell EB5 with PA6 cell in BMP4-added serum-free medium, immunological staining. The format is cell-based, mouse. The protocol:
A medium was prepared by adding 0.5 nmol/l BMP4 (manufactured by R & D) to the serum-free medium described in Reference Example 1. The ES cell EB5 was cocultured with PA6 cell according to the method described in Reference Example 1, using the thus produced BMP4-added serum-free medium instead of the serum-free medium used in Reference Example 1. Eight days after culturing, immunological cell staining was carried out by using the anti-NCAM antibody, the anti-nestin antibody or an antibody against a non-neural ectoderm cell marker E cadherin (manufactured by Takara Shuzo). As a control, coculturing was carried out in the serum-free medium without BMP4.
Also, 8 days after culturing in the BMP4-added serum-free medium, the medium was changed to Glasgow MEM medium containing 10% fetal bovine serum (manufactured by GIBCO BRL), followed by culturing for 3 days. The thus cultured cells were fixed for 30 minutes by adding 4% paraformaldehyde and immunologically stained with an antibody against a skin epidermis cell marker keratin 14 (manufactured by Biomedia), and the results were compared with those in which culturing was continued for additional 3 days in the bovine serum-free medium, with the results shown in FIGS. 9G, H and I.

Assay [2] concerns ES cell EB5. The assay can be described thus: Effects of shh and BMP4 on dorso-ventral neural markers in ES cell EB5/PA6 coculture. The note with it: shh 300 nmol/l or BMP4 0.5 nmol/l added at medium exchange on 4th, 6th, 8th days; 10 days coculture with PA6. The format is cell-based, mouse. Here is the method:
According to the method described in Reference Example 1, the ES cell EB5 was cultured for 10 days in the serum-free medium without BMP4 by using the PA6 cell as a feeder cell. That is, the PA6 cell proliferated to almost confluent on a 3 cm tissue culture dish was used as a feeder cell, the ES cell was inoculated onto the feeder cell at a density of 200 cells/dish, the medium was exchanged with a fresh serum-free medium on the 4th, 6th and 8th days, and the cells were cultured at 37° C. for 10 days in a 5% CO2 incubator.
Effects of shh were evaluated according to the similar method described above, by using a serum-free medium to which 300 nmol/l of shh (manufactured by R & D) had been added at the time of the medium exchange on the 4th, 6th and 8th days.
Effects of BMP4 were evaluated according to the similar method described above, by using a serum-free medium to which 0.5 nmol/l of BMP4 (manufactured by R & D) had been added at the time of the medium exchange on the 4th, 6th and 8th days.
Ten days after coculturing, the cells cultured by respective culturing methods were fixed according to the method described in Reference Example 1, and the colonies formed as a result of coculturing of the ES cell with PA6 cell were immunologically stained with the anti-NCAM antibody, an antibody against HNF-3β which is a marker of the basal plate existing on the most ventral side of the central nervous system primordium (neural tube) (purchased from Developmental Studies Hybridoma Bank), an antibody against Nkx2.2 as a marker existing secondary to the HNF-3β from the ventral side (purchased from Developmental Studies Hybridoma Bank), an antibody against Pax-7 as a marker of the neural tube dorsal side (purchased from Developmental Studies Hybridoma Bank), an antibody against AP-2 as a marker of the neural crest cell (purchased from Developmental Studies Hybridoma Bank), an antibody against islet 1 as a marker of motor neuron (purchased from Developmental Studies Hybridoma Bank) and an antibody against VAchT which is a marker of cholinergic neuron (manufactured by Chemicon).

Assay [3] concerns ES cell EB5. Description: Mesodermal marker staining of colonies from ES cell/PA6 coculture in BMP4-added serum-free medium. The format is cell-based, mouse. The note with it: 0.5 nmol/l BMP4-added serum-free medium, coculture with PA6 cell, 8 days. The source says: A medium was produced by adding 0.5 nmol/l of BMP4 (manufactured by R & D) to the serum-free medium described in Reference Example 1. Using the thus produced BMP4-added serum-free medium instead of the serum-free medium used in Reference Example 1, the ES cell EB5 and PA6 cell were cocultured according to the method described in Reference Example 1. That is, the PA6 cell proliferated to almost confluent on a 3 cm tissue culture dish was used as a feeder cell, the ES cell was inoculated onto the feeder cell at a density of 200 cells/dish, medium exchange was carried out with a fresh medium on the 4th, 6th and 7th days, and the cells were cultured at 37° C. for 8 days in a stream of 5% carbon dioxide in a CO2 incubator.
Eight days after coculturing, the cells were fixed according to the method described in Reference Example 1, and colonies formed as a result of coculturing of the ES cell and PA6 cell were immunologically stained with the anti-NCAM antibody, the anti-E cadherin antibody, an MF20 antibody which recognizes mesodermal cells (manufactured by Developmental Studies Hybridoma Bank) and an antibody against PDGF receptor α or Flk1 whose expression are observed in mesodermal cells (S. I. Nishikawa et al., Development, 125, 1747 (1998)).

The subject of assay [4] is ES cell EB5. The assay can be described thus: Nerve differentiation of ES cell EB5 by solution recovered from PA6 cell with polyanion-containing Hanks' balanced salt solution (SDIA activity). The format is cell-based, mouse. Conditions: SFRP 1 removed with anti-SFRP 1 polyclonal antibody on protein G Sepharose, 4° C., 15 hours; compared with untreated solution. The protocol: ES cell EB5 (H. Niwa et al., Nature Genet., 24, 372 (2000); obtained from Dr. Hitoshi Niwa at the Molecular Control Medical Science Course, Medical School, Osaka University) was used as the embryonic stem cell, and an MC3T3-G2/PA6 cell (H. Kodama et al., J. Cell Physiol., 112) 89 (1982), hereinafter referred to as “PA6 cell”) as the stromal cell, and the ES cell EB5 was cultured in accordance with the method described in Reference Example 1 and used in the test.
Cells of PA6 cultured to almost confluent state on a dish of 10 cm in diameter were washed twice with 10 ml of PBS(−) (manufactured by Invitrogen) and once with 10 ml of Hanks' balanced salt solution (manufactured by Invitrogen), 3 ml of Hanks' balanced salt solution containing from 0.001% (w/v) to 0.1% (w/v) of heparin (manufactured by Nacalai Tesque) was added thereto, the mixture was allowed to stand at 37° C. for 30 minutes, and the solution was recovered. The solution obtained was added to the PA6 on the 10 cm, dish washed in the same manner described above, the mixture was allowed to stand at 37° C. for 30 minutes in the same manner, and then the solution was recovered. This process was carried out on PA6 on the other 10 cm dish, and effect of the recovered solution ES cell was examined. […]

Setting [5] is: 0.5 nmol/l BMP4-added serum-free medium, coculture with PA6 cell, 8 days.

B1: GDNF: glial cell-line derived neurotrophic factor (protein, UniProt P39905 78-211, looked up)
Glial cell line-derived …: SPDKQMAVLPRRERNRQAAAANPENSRGKGRRGQRGKNRGCVLTAIHLNVTDLGLGYETKEELIFRYCSGSCDAAETTYDKILKNLSRNRRLVSDKVGQACCRPIAFDDDLSFLDDNLVYHILRKHSAKRCGCI
As to B1, the “SDIA-like activity to induce differentiation of embryonic stem cell into ectoderm system cells” value in the assay on embryonic stem cell is given as “no SDIA-like activity”.

B2: BMP4: bone morphogenetic protein 4, dorsal factor of neural tube (manufactured by R & D) (protein, UniProt P12644 293-408, looked up)
Bone morphogenetic protein 4: SPKHHSQRARKKNKNCRRHSLYVDFSDVGWNDWIVAPPGYQAFYCHGDCPFPLADHLNSTNHAIVQTLVNSVNSSIPKACCVPTELSAISMLYLDEYDKVVLKNYQEMVVEGCGCR
With B2, in the assay with ES cell EB5 [1] (setting [5]), the “anti-NCAM antibody staining of ES cell-derived colonies” value was “anti-NCAM antibody-negative”, the “anti-nestin antibody staining of ES cell-derived colonies” value is reported as “anti-nestin antibody-negative” and the “frequency of E cadherin-positive colonies” value came out at 98%. Besides, the “frequency of keratin 14-positive colonies” value in the assay on ES cell EB5 [1] (8 days in BMP4-added serum-free medium, then 3 days in Glasgow MEM medium containing 10% fetal bovine serum) amounted to 47%. In addition, the “frequency of keratin 14-positive colonies” value in the assay with ES cell EB5 [1] (BMP4-added serum-free medium throughout (8 days plus additional 3 days serum-free)) is reported as 34%. Moreover, in the assay on ES cell EB5 [2], the “ratio of ES cell-derived colonies stained with Anti-AP-2 antibody” value is recorded as 24%, the “ratio of ES cell-derived colonies stained with Anti-HNF-3β antibody” value came to 9%, the “ratio of ES cell-derived colonies stained with Anti-NCAM antibody” value is listed as 90% and the “ratio of ES cell-derived colonies stained with Anti-Nkx2.2 antibody” value came to 19%. In the assay with ES cell EB5 [2], the “ratio of ES cell-derived colonies stained with Anti-Pax-7 antibody” value is on record as 72%, the “ratio of ES cell-derived colonies stained with Anti-VAchT antibody” value is 42% and the “ratio of ES cell-derived colonies stained with Anti-islet 1 antibody” value is given as 36%. For the same molecule, the “colonies stained with mesodermal cell markers PDGF receptor α, Flk1 and MF20, of the total colonies” value in the assay on ES cell EB5 [3] is given as ≤ 5%.

B3: IL-11: interleukin 11 (protein, UniProt P20809 22-199, looked up)
Interleukin-11: PGPPPGPPRVSPDPRAELDSTVLLTRSLLADTRQLAAQLRDKFPADGDHNLDSLPTLAMSAGALGALQLPGVLTRLRADLLSYLRHVQWLRRAGGSSLKTLEPELGTLQARLDRLLRRLQLLMSRLALPQPPPDPPAPPLAPPSSAWGGIRAAHAILGGLHLTLDWAVRGLLLLKTRL
Take B3: the “SDIA-like activity to induce differentiation of embryonic stem cell into ectoderm system cells” value in the assay with embryonic stem cell is listed as “no SDIA-like activity”.

B4: FGF-8: fibroblast growth factor 8 (protein, UniProt P55075 23-233, looked up)
Fibroblast growth factor 8: QEGPGRGPALGRELASLFRAGREPQGVSQQHVREQSLVTDQLSRRLIRTYQLYSRTSGKHVQVLANKRINAMAEDGDPFAKLIVETDTFGSRVRVRGAETGLYICMNKKGKLIAKSNGKGKDCVFTEIVLENNYTALQNAKYEGWYMAFTRKGRPRKGSKTRQHQREVHFMKRLPRGHHTTEQSLRFEFLNYPPFTRSLRGSQRTWAPEPR
For B4, in the assay with embryonic stem cell, the “SDIA-like activity to induce differentiation of embryonic stem cell into ectoderm system cells” value is listed as “no SDIA-like activity”.

B5: SFRP 1: mouse-derived secreted frizzled-related protein 1 (SEQ ID NO:7), about 38 kDa band identified in solution having SDIA activity (protein, listed as Mus musculus)
chain: MGVGRSARGRGGAASGVLLALAAALLAAGSASEYDYVSFQSDIGSYQSGRFYTKPPQCVDIPVDLRLCHNVGYKKMVLPNLLEHETMAEVKQQASSWVPLLNKNCHMGTQVFLCSLFAPVCLDRPIYPCRWLCEAVRDSCEPVMQFFGFYWPEMLKCDKFPEGDVCIAMTPPNTTEASKPQGTTVCPPCDNELKSEAIIEHLCASEFALRMKIKEVKKENGDKKIVPKKKKPLKLGPIKKKELKALVLFLKNGADCPCHQLDNLSHNFLIMGRKVKSQYLLTAIHKWDKKNKEFKNFMKRMKNHECPTFQSVFK
With B5, the “SDIA activity of solution after removal of SFRP 1” value in the assay with ES cell EB5 [4] is “decrease of SDIA activity was observed”.
